The text below walks through data of patent publication US20220298218A1 (ANTAG THERAPEUTICS, published 2022).

The test concerns the target T1, human GIP receptor (human, UniProt P48546 22-466).
T1 sequence (looked up): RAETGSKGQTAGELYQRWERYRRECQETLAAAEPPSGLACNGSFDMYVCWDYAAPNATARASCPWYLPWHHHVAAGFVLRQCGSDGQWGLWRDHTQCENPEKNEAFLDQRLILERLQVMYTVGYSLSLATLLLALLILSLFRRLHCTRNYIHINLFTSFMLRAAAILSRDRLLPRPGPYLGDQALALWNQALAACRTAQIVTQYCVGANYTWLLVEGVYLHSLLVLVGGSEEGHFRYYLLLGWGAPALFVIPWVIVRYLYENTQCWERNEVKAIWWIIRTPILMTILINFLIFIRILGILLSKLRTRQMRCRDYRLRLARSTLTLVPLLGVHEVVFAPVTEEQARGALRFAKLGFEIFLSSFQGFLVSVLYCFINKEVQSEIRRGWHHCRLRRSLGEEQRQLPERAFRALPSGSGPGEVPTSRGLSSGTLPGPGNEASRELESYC
Nature of the test: cell-based or functional assay.

*1 amine or outer side, *2 acyl side, *3 side chain or, on linkers, in order; H or OH if unused. Where no end group is shown, it is not given here. Side-chain parts run from the residue outwards. The star is where a group is joined. C18 diacid = O=C(O)CCCCCCCCCCCCCCCCC(=O)*; C16 diacid = O=C(O)CCCCCCCCCCCCCCC(=O)*; γGlu = O=C(O)[C@H](CCC(=O)[*:2])N[*:1]; AEEA = NCCOCCOCC(=O)O

B1: AT545 (peptide)
peptide: EGTFISDYSIAMDKIK([AEEA-AEEA-γGlu-C18 diacid])QQDFVNWLLAQKGKKNDW-NH2
modifications: N-terminus assumed
SMILES: CC[C@H](C)[C@H](NC(=O)[C@H](CO)NC(=O)[C@H](Cc1ccc(O)cc1)NC(=O)[C@H](CC(=O)O)NC(=O)[C@H](CO)NC(=O)[C@@H](NC(=O)[C@H](Cc1ccccc1)NC(=O)[C@@H](NC(=O)CNC(=O)[C@@H](N)CCC(=O)O)[C@@H](C)O)[C@@H](C)CC)C(=O)N[C@@H](C)C(=O)N[C@@H](CCSC)C(=O)N[C@@H](CC(=O)O)C(=O)N[C@@H](CCCCN)C(=O)N[C@H](C(=O)N[C@@H](CCCCNC(=O)COCCOCCNC(=O)COCCOCCNC(=O)CC[C@H](NC(=O)CCCCCCCCCCCCCCCCC(=O)O)C(=O)O)C(=O)N[C@@H](CCC(N)=O)C(=O)N[C@@H](CCC(N)=O)C(=O)N[C@@H](CC(=O)O)C(=O)N[C@@H](Cc1ccccc1)C(=O)N[C@H](C(=O)N[C@@H](CC(N)=O)C(=O)N[C@@H](Cc1c[nH]c2ccccc12)C(=O)N[C@@H](CC(C)C)C(=O)N[C@@H](CC(C)C)C(=O)N[C@@H](C)C(=O)N[C@@H](CCC(N)=O)C(=O)N[C@@H](CCCCN)C(=O)NCC(=O)N[C@@H](CCCCN)C(=O)N[C@@H](CCCCN)C(=O)N[C@@H](CC(N)=O)C(=O)N[C@@H](CC(=O)O)C(=O)N[C@@H](Cc1c[nH]c2ccccc12)C(N)=O)C(C)C)[C@@H](C)CC
As for B1, the “cAMP agonism % Emax” value amounted to 0%, the “cAMP antagonism” value is 17.8 nM, the “cAMP antagonism % inhib” value was 77% and the “cAMP antagonism pIC50” value stood at 7.8.

B2: AT631 (peptide)
peptide: EGTFISDYSIAMDKIK(C16 diacid)QQDFVNWLLAQKPSSGAPPPS-OH
modifications: N-terminus assumed
SMILES: CC[C@H](C)[C@H](NC(=O)[C@H](CO)NC(=O)[C@H](Cc1ccc(O)cc1)NC(=O)[C@H](CC(=O)O)NC(=O)[C@H](CO)NC(=O)[C@@H](NC(=O)[C@H](Cc1ccccc1)NC(=O)[C@@H](NC(=O)CNC(=O)[C@@H](N)CCC(=O)O)[C@@H](C)O)[C@@H](C)CC)C(=O)N[C@@H](C)C(=O)N[C@@H](CCSC)C(=O)N[C@@H](CC(=O)O)C(=O)N[C@@H](CCCCN)C(=O)N[C@H](C(=O)N[C@@H](CCCCNC(=O)CCCCCCCCCCCCCCC(=O)O)C(=O)N[C@@H](CCC(N)=O)C(=O)N[C@@H](CCC(N)=O)C(=O)N[C@@H](CC(=O)O)C(=O)N[C@@H](Cc1ccccc1)C(=O)N[C@H](C(=O)N[C@@H](CC(N)=O)C(=O)N[C@@H](Cc1c[nH]c2ccccc12)C(=O)N[C@@H](CC(C)C)C(=O)N[C@@H](CC(C)C)C(=O)N[C@@H](C)C(=O)N[C@@H](CCC(N)=O)C(=O)N[C@@H](CCCCN)C(=O)N1CCC[C@H]1C(=O)N[C@@H](CO)C(=O)N[C@@H](CO)C(=O)NCC(=O)N[C@@H](C)C(=O)N1CCC[C@H]1C(=O)N1CCC[C@H]1C(=O)N1CCC[C@H]1C(=O)N[C@@H](CO)C(=O)O)C(C)C)[C@@H](C)CC
For B2, the “cAMP agonism % Emax” value stood at 0%.
